Source: PMC3458824, “Direct Observation of the Uptake of Outer Membrane Proteins by the Periplasmic Chaperone Skp” (PLoS ONE, 2012)

B2: OmpC-D290C-Cy5 (natural protein, Escherichia coli, UniProt P06996 22-367, looked up)
chain: AEVYNKDGNKLDLYGKVDGLHYFSDNKDVDGDQTYMRLGFKGETQVTDQLTGYGQWEYQIQGNSAENENNSWTRVAFAGLKFQDVGSFDYGRNYGVVYDVTSWTDVLPEFGGDTYGSDNFMQQRGNGFATYRNTDFFGLVDGLNFAVQYQGKNGNPSGEGFTSGVTNNGRDALRQNGDGVGGSITYDYEGFGIGGAISSSKRTDAQNTAAYIGNGDRAETYTGGLKYDANNIYLAAQYTQTYNATRVGSLGWANKAQNFEAVAQYQFDFGLRPSLAYLQSKGKNLGRGYCDEDILKYVDVGATYYFNKNMSTYVDYKINLLDDNQFTRDAGINTDNIVALGLVYQF
modifications: Cy5 (Cy5-maleimide) on the introduced cysteine at 290
notes: Outer membrane protein OmpC of Escherichia coli; 346 residues as printed; Extent of labeling greater than 90%; also called Cy5 labeled OmpC mutant D290C; source: E. coli BL21 (DE3), purified (Ni-NTA) in 8 M urea, unfolded, labeled with Cy5-maleimide
B3: OmpC-L139C-Cy5 (natural protein, Escherichia coli, UniProt P06996 22-367, looked up)
chain: AEVYNKDGNKLDLYGKVDGLHYFSDNKDVDGDQTYMRLGFKGETQVTDQLTGYGQWEYQIQGNSAENENNSWTRVAFAGLKFQDVGSFDYGRNYGVVYDVTSWTDVLPEFGGDTYGSDNFMQQRGNGFATYRNTDFFGCVDGLNFAVQYQGKNGNPSGEGFTSGVTNNGRDALRQNGDGVGGSITYDYEGFGIGGAISSSKRTDAQNTAAYIGNGDRAETYTGGLKYDANNIYLAAQYTQTYNATRVGSLGWANKAQNFEAVAQYQFDFGLRPSLAYLQSKGKNLGRGYDDEDILKYVDVGATYYFNKNMSTYVDYKINLLDDNQFTRDAGINTDNIVALGLVYQF
modifications: Cy5 (Cy5-maleimide) on the introduced cysteine at 139
notes: Outer membrane protein OmpC of Escherichia coli; 346 residues as printed; Extent of labeling greater than 90%; also called Cy5 labeled OmpC mutant L139C; source: E. coli BL21 (DE3), purified (Ni-NTA) in 8 M urea, unfolded, labeled with Cy5-maleimide
B4: Skp-K55C-Cy3 (natural protein, Escherichia coli, UniProt P0AEU7 21-161, looked up)
chain: ADKIAIVNMGSLFQQVAQKTGVSNTLENEFKGRASELQRMETDLQAKMKKLQSMCAGSDRTKLEKDVMAQRQTFAQKAQAFEQDRARRSNEERGKLVTRIQTAVKSVANSQDIDLVVDANAVAYNSSDVKDITADVLKQVK
modifications: Cy3 (Cy3-maleimide) on the introduced cysteine at 55
notes: Skp of Escherichia coli, each monomer 141 residues as printed; Extent of labeling greater than 90%; one dye on each of the three chains of the trimer; also called Cy3 labeled Skp mutant K55C; Skp-Cy3; source: E. coli BL21 (DE3), purified (Ni-NTA), labeled with Cy3-maleimide
B5: Skp-E82C-Cy3 (natural protein, Escherichia coli, UniProt P0AEU7 21-161, looked up)
chain: ADKIAIVNMGSLFQQVAQKTGVSNTLENEFKGRASELQRMETDLQAKMKKLQSMKAGSDRTKLEKDVMAQRQTFAQKAQAFCQDRARRSNEERGKLVTRIQTAVKSVANSQDIDLVVDANAVAYNSSDVKDITADVLKQVK
modifications: Cy3 (Cy3-maleimide) on the introduced cysteine at 82
notes: Skp of Escherichia coli, each monomer 141 residues as printed; Extent of labeling greater than 90%; one dye on each of the three chains of the trimer; also called Cy3 labeled Skp mutant E82C; Skp-Cy3; source: E. coli BL21 (DE3), purified (Ni-NTA), labeled with Cy3-maleimide

Key:
[1] = target: Skp-D128C (Escherichia coli) (UniProt P0AEU7); experiment: fluorescence correlation spectroscopy (FCS); Cy3 labeled OmpC in 8 M urea diluted dropwise into 50 mM PBS pH 7.0, 100 mM NaCl, 0.01% Tween 20 with 0.2 µM reduced Skp; molecular weight of the complex from the diffusion time with free Cy3 as reference
[2] = target: Skp-E82C (Escherichia coli) (UniProt P0AEU7); experiment: as above
[3] = target: Skp-K55C (Escherichia coli) (UniProt P0AEU7); experiment: as above
[4] = target: T1, wild-type Skp (Escherichia coli, UniProt P0AEU7 21-161); experiment: cell-based or functional assay
T1 sequence (looked up): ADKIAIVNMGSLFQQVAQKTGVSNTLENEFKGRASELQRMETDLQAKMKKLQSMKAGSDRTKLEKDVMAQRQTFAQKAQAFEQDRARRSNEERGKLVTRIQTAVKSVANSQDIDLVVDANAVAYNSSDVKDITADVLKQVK

[5] = target: B4; experiment: stopped-flow fluorescence (Cy3 self-quenching); OMP in 8 M urea mixed 1:20 with Cy3 labeled Skp mutant; both 0.03 µM final; 50 mM PBS pH 7.0, 100 mM NaCl, 0.01% Tween 20, 25°C; traces fitted to two or three exponentials; conditions: both partners purified
[6] = target: B5; experiment: as above; conditions: both partners purified
[7] = target: T2, Skp-D128C-Cy3 (Escherichia coli, UniProt P0AEU7 21-161, D128C, Cy3 (Cy3-maleimide) on the introduced cysteine at 128); experiment: as above; conditions: both partners purified
T2 construct: Skp of Escherichia coli, each monomer 141 residues as printed; Extent of labeling greater than 90%; one dye on each of the three chains of the trimer; also called Cy3 labeled Skp mutant D128C; Skp-Cy3; source: E. coli BL21 (DE3), purified (Ni-NTA), labeled with Cy3-maleimide
T2 sequence (looked up): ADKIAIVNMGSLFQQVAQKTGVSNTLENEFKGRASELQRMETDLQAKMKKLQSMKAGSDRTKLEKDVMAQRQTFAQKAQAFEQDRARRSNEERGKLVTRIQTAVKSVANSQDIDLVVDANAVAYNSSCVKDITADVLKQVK

[8] = target: T2, Skp-D128C-Cy3; experiment: FRET or BRET; stopped-flow FRET; Cy5 labeled OmpC mutant in 8 M urea mixed 1:20 with Cy3 labeled Skp mutant; both 0.03 µM final; 50 mM PBS pH 7.0, 100 mM NaCl, 0.01% Tween 20, 25°C; Cy5 emission, fitted to three exponentials; conditions: both partners purified
[9] = target: B3; experiment: as above; conditions: both partners purified
[10] = target: B2; experiment: as above; conditions: both partners purified

## Cy3 labeled OmpC (from UniProt P06996 22-367) (natural protein)
[1]
  stoichiometry N: 1 OmpC:Skp
[2]
  stoichiometry N: 1 OmpC:Skp
[3]
  stoichiometry N: 1 OmpC:Skp

B1: OmpC (natural protein, Escherichia coli, UniProt P06996 22-367, looked up)
chain: AEVYNKDGNKLDLYGKVDGLHYFSDNKDVDGDQTYMRLGFKGETQVTDQLTGYGQWEYQIQGNSAENENNSWTRVAFAGLKFQDVGSFDYGRNYGVVYDVTSWTDVLPEFGGDTYGSDNFMQQRGNGFATYRNTDFFGLVDGLNFAVQYQGKNGNPSGEGFTSGVTNNGRDALRQNGDGVGGSITYDYEGFGIGGAISSSKRTDAQNTAAYIGNGDRAETYTGGLKYDANNIYLAAQYTQTYNATRVGSLGWANKAQNFEAVAQYQFDFGLRPSLAYLQSKGKNLGRGYDDEDILKYVDVGATYYFNKNMSTYVDYKINLLDDNQFTRDAGINTDNIVALGLVYQF
notes: Outer membrane protein OmpC of Escherichia coli; 346 residues as printed; Kept unfolded in 8 M urea and diluted into the Skp solution (final urea 0.38 M in stopped-flow); the printed 346 residues fit the mature protein; also called wild-type OmpC; urea-denatured OmpC; source: E. coli BL21 (DE3), purified (Ni-NTA) in 8 M urea, unfolded
[4]
  aggregation of urea-denatured OmpC (1.5 µM) by light scatter at 380 nm, 25°C, with 0, 1.5, 4.5 and 7.5 µM wild-type Skp: 5 fold molar excess
[5]
  time constant τ1 of the first phase: 82.6 ± 5.5 ms
[6]
  time constant τ1 of the first phase: 125 ± 7.8 ms
[7]
  time constant τ1 of the first phase: 188 ± 12 ms

## B2
[8]
  time constant τ1 of the fast phase: 285 ± 19 ms

## B3
[8]
  time constant τ1 of the fast phase: 208 ± 14 ms

## B4
[9]
  binding result: binds
[10]
  binding result: binds

## B5
[9]
  binding result: binds
[10]
  binding result: binds

B6: transmembrane domain of OmpA (domain or fragment, Escherichia coli)
chain: APKDNTWYTGAKLGWSQYHDTGFINNNGPTHENQLGAGAFGGYQVNPYVGFEMGYDWLGRMPYKGSVENGAYKAQGVQLTAKLGYPITDDLDIYTRLGGMVWRADTKSNVYGKNHDTGVSPVFAGGVEYAITPEIATRLEYQWTNNIGDAHTIGTRPDNGMLSLGVSYRFGQGEAA
notes: Transmembrane beta-barrel domain of outer membrane protein OmpA of Escherichia coli; PDB 2GE4 is named as the structure of this domain; also called OmpA-TMD; source: E. coli BL21 (DE3), purified (Ni-NTA) in 8 M urea, unfolded
[5]
  time constant τ1 of the first phase: 38.6 ± 2.7 ms
[6]
  time constant τ1 of the first phase: 61.7 ± 4.2 ms
[7]
  time constant τ1 of the first phase: 105 ± 7.3 ms

B7: OmpF (natural protein, Escherichia coli)
chain: AEIYNKDGNKVDLYGKAVGLHYFSKGNGENSYGGNGDMTYARLGFKGETQINSDLTGYGQWEYNFQGNNSEGADAQTGNKTRLAFAGLKYADVGSFDYGRNYGVVYDALGYTDMLPEFGGDTAYSDDFFVGRVGGVATYRNSNFFGLVDGLNFAVQYLGKNERDTARRSNGDGVGGSISYEYEGFGIVGAYGAADRTNLQEAQPLGNGKKAEQWATGLKYDANNIYLAANYGETRNATPITNKFTNTSGFANKTQDVLLVAQYQFDFGLRPSIAYTKSKAKDVEGIGDVDLVNYFEVGATYYFNKNMSTYVDYIINQIDSDNKLGVGSDDTVAVGIVYQF
notes: Outer membrane protein OmpF of Escherichia coli; probably the mature protein as for OmpC (surmise); also called wild-type OmpF; source: E. coli BL21 (DE3), purified (Ni-NTA) in 8 M urea, unfolded
[5]
  time constant τ1 of the first phase: 61.3 ± 4.9 ms
[6]
  time constant τ1 of the first phase: 182 ± 11 ms
[7]
  time constant τ1 of the first phase: 270 ± 16 ms
